Experimental data as given in patent US20250163127A1.
Read-outs that look alike come from different tables or passages of the source. Blank lines part the entries; values can stand above or below the substance they belong to.

Assays:
[1] = molecular target: CD28, full-length, expressed on transfected cells (Homo sapiens (Human)) (UniProt P10747); experiment: flow cytometry, cells expressing target
[2] = molecular target: ICOS as used in the OD read-out of Table E15A (Homo sapiens (Human)) (UniProt Q9Y6W8); experiment: OD read-out, format not told
[3] = molecular target: ICOS, full-length, expressed on transfected cells (Homo sapiens (Human)) (UniProt Q9Y6W8); experiment: flow cytometry, cells expressing target
[4] = molecular target: CTLA-4, full-length, expressed on transfected cells (Homo sapiens (Human)) (UniProt P16410); experiment: flow cytometry, cells expressing target
human PD-1 (human) [5] = molecular target: human PD-1 (human) (UniProt Q15116); experiment: flow cytometry, CHO/PD-1 cells, 100 nM, anti-Flag
human CTLA-4 (human) = experiment: flow cytometry, CHO/CTLA-4 cells, 100 nM, anti-Flag
PD-L1 (human) = experiment: flow cytometry on HEK293 cells transfected with PD-L1
CD28 (human) [6] = molecular target: CD28 (human) (UniProt P10747); experiment: flow cytometry on HEK293 cells transfected with CD28
CTLA-4 (human) = experiment: flow cytometry on HEK293 cells transfected with CTLA4
CD112R (human) = CD112R (human) (UniProt Q6DKI7); experiment: flow cytometry, transfected HEK293
CD226 (human) [7] = molecular target: T1, CD226 (human) (UniProt Q15762); experiment: flow cytometry, transfected HEK293
T1 sequence: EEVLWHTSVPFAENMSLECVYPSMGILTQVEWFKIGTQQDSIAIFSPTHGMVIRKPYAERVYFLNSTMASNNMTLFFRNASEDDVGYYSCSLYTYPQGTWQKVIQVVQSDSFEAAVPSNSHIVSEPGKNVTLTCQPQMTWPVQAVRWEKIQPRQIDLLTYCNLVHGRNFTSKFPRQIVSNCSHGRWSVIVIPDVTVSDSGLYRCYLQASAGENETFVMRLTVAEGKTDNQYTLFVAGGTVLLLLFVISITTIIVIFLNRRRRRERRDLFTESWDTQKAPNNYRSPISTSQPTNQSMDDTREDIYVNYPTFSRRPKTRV

CD96 (human) [8] = molecular target: T2, CD96 (human) (UniProt P40200); experiment: flow cytometry, transfected HEK293
T2 sequence: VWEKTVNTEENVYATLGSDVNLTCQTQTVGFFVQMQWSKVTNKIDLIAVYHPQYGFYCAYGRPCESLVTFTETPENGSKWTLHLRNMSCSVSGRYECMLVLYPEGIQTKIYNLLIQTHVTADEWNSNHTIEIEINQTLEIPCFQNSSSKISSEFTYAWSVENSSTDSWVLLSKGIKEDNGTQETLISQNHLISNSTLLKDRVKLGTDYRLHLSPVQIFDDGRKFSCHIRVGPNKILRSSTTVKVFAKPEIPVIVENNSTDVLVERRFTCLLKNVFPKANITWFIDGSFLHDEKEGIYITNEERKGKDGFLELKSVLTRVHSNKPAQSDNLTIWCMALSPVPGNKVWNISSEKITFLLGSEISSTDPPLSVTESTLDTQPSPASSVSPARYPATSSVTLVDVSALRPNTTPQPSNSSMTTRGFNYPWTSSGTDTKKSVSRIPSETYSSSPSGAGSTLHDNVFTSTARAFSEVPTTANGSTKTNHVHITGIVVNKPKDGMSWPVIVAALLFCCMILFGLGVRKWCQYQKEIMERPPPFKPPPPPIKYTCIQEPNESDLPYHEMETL

TIGIT (human) [9] = molecular target: T3, TIGIT (human) (UniProt Q495A1); experiment: flow cytometry, transfected HEK293
T3 sequence: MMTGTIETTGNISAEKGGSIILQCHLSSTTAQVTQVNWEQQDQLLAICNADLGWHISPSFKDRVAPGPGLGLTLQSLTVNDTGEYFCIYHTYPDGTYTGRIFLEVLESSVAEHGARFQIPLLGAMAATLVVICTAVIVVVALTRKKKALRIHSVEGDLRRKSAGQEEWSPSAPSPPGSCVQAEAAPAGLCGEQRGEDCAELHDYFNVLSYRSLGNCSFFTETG

human PD-1 (human) [10] = molecular target: human PD-1 (human) (UniProt Q15116)
CD226 (human) [11] = molecular target: T1, CD226 (human); experiment: flow cytometry, CD226-transfected Expi293 cells
TIGIT (human) [12] = molecular target: T3, TIGIT (human); experiment: flow cytometry, TIGIT-transfected Expi293 cells
CD96 (human) [13] = molecular target: T2, CD96 (human); experiment: flow cytometry, CD96-transfected Expi293 cells
CD28 (human) [14] = molecular target: CD28 (human) (UniProt P10747); experiment: flow cytometry, Jurkat cells (endogenous CD28), 100 nM, anti-Flag
TIGIT (human) [15] = molecular target: T3, TIGIT (human); experiment: flow cytometry on transfected HEK293 cells, 100 nM
[16] = molecular target: ICOS (Homo sapiens (Human)) (UniProt Q9Y6W8); experiment: flow cytometry, transfected cells
[17] = molecular target: CTLA-4 (Homo sapiens (Human)) (UniProt P16410); experiment: flow cytometry, transfected cells
[18] = molecular target: ICOS (Homo sapiens (Human)) (UniProt Q9Y6W8); experiment: flow cytometry, transfected cells; remark: listed apart in the source
[19] = molecular target: CTLA-4 (Homo sapiens (Human)) (UniProt P16410); experiment: flow cytometry, transfected cells; remark: listed apart in the source
[20] = molecular target: ICOS (Homo sapiens (Human)) (UniProt Q9Y6W8); experiment: flow cytometry, transfected cells; remark: listed apart in the source
[21] = molecular target: CTLA-4 (Homo sapiens (Human)) (UniProt P16410); experiment: flow cytometry, transfected cells; remark: listed apart in the source
human PD-1 (human) [22] = molecular target: human PD-1 (human) (UniProt Q15116); experiment: flow cytometry, cells expressing PD-1, 20 nM
CD80 (human) = experiment: flow cytometry, cells expressing CD80, 20 nM
PD-1-Fc (human) = PD-1-Fc (human) (UniProt Q15116); experiment: ForteBio Octet, PD-1 on anti-human capture sensor, 100 nM
Chain of PD-1-Fc (human) (Q15116 25-167 limits assumed): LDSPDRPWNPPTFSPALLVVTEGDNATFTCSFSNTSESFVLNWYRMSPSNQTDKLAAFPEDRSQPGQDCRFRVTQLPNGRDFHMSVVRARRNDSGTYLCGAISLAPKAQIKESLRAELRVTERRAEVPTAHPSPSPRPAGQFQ

Chain of Wild type CD155 IgV-Fc (Fc fusion) (chain): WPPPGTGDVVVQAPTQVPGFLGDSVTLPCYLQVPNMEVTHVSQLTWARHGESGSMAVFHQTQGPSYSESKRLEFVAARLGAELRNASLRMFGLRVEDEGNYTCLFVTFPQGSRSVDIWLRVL
Chain of ICOS (Homo sapiens (Human)) (Q9Y6W8 21-199 limits assumed): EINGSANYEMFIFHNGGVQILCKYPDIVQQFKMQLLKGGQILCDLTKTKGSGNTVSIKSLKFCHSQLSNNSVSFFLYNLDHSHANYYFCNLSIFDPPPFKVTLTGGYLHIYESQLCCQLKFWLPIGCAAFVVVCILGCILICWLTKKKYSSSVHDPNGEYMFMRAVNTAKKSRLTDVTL
Chain of CTLA-4 (Homo sapiens (Human)) (P16410 36-223): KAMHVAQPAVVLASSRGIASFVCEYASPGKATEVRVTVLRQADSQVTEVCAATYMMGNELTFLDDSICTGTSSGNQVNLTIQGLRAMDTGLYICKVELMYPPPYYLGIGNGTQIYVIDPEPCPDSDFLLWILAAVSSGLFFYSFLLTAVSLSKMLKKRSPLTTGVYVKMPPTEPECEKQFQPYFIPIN
Chain of WT CD112 IgV (Fc fusion) (chain): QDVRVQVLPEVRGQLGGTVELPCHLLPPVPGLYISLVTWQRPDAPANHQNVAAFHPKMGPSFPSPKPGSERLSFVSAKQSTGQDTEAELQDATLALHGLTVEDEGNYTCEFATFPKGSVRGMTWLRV
Chain of WT CD80 IgV-Fc (inert) (Fc fusion) (chain): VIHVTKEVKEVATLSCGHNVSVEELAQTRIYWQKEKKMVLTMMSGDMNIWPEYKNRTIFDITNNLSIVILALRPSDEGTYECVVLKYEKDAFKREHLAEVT
Chain of human PD-1 (human) (Q15116 25-288): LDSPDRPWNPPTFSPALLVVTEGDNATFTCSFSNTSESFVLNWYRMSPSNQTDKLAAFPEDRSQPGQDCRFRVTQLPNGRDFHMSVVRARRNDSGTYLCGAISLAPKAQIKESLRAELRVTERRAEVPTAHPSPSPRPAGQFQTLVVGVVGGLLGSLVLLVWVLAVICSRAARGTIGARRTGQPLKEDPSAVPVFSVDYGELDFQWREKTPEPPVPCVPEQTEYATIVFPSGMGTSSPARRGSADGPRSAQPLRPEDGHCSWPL
Chain of Wildtype ICOSL ECD-Fc (Fc fusion) (chain): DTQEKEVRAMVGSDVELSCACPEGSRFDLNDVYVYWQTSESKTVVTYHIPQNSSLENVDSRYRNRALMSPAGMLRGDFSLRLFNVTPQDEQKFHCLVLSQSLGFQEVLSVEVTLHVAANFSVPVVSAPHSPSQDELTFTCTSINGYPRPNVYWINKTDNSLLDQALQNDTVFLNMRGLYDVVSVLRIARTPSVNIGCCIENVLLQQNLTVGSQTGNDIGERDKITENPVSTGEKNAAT
Chain of Wild-type PD-L1 (IgV, SEQ ID NO 309) (ligand) (chain): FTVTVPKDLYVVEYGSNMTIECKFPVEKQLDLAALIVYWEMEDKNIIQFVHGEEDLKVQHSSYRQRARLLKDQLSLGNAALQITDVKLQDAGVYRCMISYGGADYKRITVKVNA
Chain of human CTLA-4 (human) (chain, as listed by the source): as the sequence (P16410 36-223) above
Chain of CTLA-4, full-length, expressed on transfected cells (Homo sapiens (Human)) (P16410 36-223): as above
Chain of PD-L1 (human) (chain, as listed by the source): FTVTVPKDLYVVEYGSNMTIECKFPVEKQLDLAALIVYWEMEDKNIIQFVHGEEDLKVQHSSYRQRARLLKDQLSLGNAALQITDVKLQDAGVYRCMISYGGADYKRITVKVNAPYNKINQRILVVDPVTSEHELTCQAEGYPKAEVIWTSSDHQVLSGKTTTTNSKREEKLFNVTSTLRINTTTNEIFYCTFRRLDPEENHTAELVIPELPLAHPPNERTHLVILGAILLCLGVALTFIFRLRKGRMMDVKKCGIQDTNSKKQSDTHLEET
Chain of WT CD80 ECD-Fc (Fc fusion) (chain): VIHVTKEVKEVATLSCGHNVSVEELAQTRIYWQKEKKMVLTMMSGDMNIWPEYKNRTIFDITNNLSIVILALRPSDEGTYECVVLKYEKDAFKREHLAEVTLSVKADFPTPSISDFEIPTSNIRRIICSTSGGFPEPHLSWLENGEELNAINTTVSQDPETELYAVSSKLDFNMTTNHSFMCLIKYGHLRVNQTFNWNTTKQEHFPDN
Chain of CD80 (human) (chain, as listed by the source): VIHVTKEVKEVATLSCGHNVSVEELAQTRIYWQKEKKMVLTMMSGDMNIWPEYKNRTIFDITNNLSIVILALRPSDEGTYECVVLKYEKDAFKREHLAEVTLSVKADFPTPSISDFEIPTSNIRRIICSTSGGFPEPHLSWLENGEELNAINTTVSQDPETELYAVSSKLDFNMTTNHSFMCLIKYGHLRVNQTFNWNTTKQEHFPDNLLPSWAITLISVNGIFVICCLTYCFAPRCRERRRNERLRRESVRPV
Chain of ICOS, full-length, expressed on transfected cells (Homo sapiens (Human)) (Q9Y6W8 21-199 limits assumed): as the sequence (Q9Y6W8 21-199 limits assumed) above
Chain of CD112R (human) (Q6DKI7 whole entry): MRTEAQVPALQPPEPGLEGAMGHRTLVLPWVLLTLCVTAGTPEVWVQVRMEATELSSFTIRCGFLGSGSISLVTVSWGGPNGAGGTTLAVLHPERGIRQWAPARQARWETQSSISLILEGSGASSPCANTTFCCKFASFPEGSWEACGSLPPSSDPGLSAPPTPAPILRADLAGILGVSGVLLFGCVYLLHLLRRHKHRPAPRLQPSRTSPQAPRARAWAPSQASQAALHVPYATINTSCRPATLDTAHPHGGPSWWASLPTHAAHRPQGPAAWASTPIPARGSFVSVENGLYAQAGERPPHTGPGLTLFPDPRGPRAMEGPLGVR
Chain of CTLA-4 (human) (chain, as listed by the source): as the sequence (P16410 36-223) above
Chain of Wildtype CD112-IgV Fc (Fc fusion) (chain): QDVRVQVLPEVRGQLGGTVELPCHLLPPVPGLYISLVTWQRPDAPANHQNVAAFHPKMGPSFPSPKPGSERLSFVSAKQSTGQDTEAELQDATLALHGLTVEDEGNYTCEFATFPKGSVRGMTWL
Chain of Wild Type PD-L2 IgV Fc fusion (chain): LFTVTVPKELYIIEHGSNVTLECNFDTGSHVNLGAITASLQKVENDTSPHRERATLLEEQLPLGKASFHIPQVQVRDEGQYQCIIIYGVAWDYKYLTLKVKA

Substance: ICOSL ECD-Fc V11E/N30D/N52H/N57Y/H94E/L96I/L98F/N194D/V210A/I218T (Fc fusion)
MFI [1]: 120000 MFI
parental ratio [1]: 26.8 ratio to WT
MFI [3]: 180000 MFI
MFI [4]: 62800 MFI
parental ratio [4]: 3.55 ratio to WT

Substance: PD-L2 1417 (monomeric variant PD-L2 IgV H15Q/T47A/K65R/S67L/Q82R/V89D) (ligand)
MFI (human PD-1 (human) [5]): 26200
MFI (human CTLA-4 (human)): 152

Substance: Variant CD80 S44P/A71D Fc fusion
MFI at 22.2 nM (PD-L1 (human)): 6310 MFI

Substance: WT CD80 ECD-Fc (Fc fusion)
MFI at 66.6 nM (CD28 (human) [6]): 24800 MFI

Substance: WT CD80 IgV-Fc (inert) (Fc fusion)
MFI at 66.6 nM (CTLA-4 (human)): 20700 MFI
MFI at 66.6 nM (CD28 (human) [6]): 1620 MFI
MFI at 22.2 nM (PD-L1 (human)): 1770 MFI

Substance: WT CD112 IgV (Fc fusion)
MFI at 20 nM (CD112R (human)): 1660
MFI at 20 nM (CD226 (human) [7]): 10800
MFI at 20 nM (CD96 (human) [8]): 2500
MFI at 20 nM (TIGIT (human) [9]): 34900

Substance: Wild Type PD-L2 IgV Fc fusion
IFN gamma levels pg/mL (MLR) (human PD-1 (human) [10]): 1380 pg/mL

Substance: Wildtype ICOSL ECD-Fc (Fc fusion)
MFI [16]: 83800 MFI
MFI [17]: 4770 MFI
MFI [18]: 36600 MFI
MFI [19]: 3800 MFI
MFI [20]: 212000 MFI
MFI [21]: 330000 MFI

Substance: variant CD112 IgV-Fc Y33H, A112V (Fc fusion)
MFI at 100 nM (TIGIT (human) [15]): 20600 MFI

Substance: variant PD-L1 I36T/M97L/A103V/Q155H Fc fusion
MFI at 20 nM (human PD-1 (human) [22]): 120 MFI
MFI at 20 nM (CD80 (human)): 128 MFI

Substance: variant PD-L2 IgV H15Q/T47A/K65R/S67L/Q82R/V89D Fc fusion
IFN gamma levels pg/mL (MLR) (human PD-1 (human) [10]): 1340 pg/mL

Further lines, results first:

MFI [1]: 24 MFI
OD [2]: 0.16 OD
parental ratio [2]: 0.19 ratio to WT
Substance: ICOSL ECD-Fc N52S/S130G/Y152C (Fc fusion)

MFI (CD226 (human) [11]): 3720
MFI (TIGIT (human) [12]): 2720
MFI (CD96 (human) [13]): 3080
Substance: Wild type CD155 IgV-Fc (Fc fusion)

MFI (CD28 (human) [14]): 716
MFI (human CTLA-4 (human)): 97.4
Substance: Wild-type PD-L1 (IgV, SEQ ID NO 309) (ligand)

MFI at 100 nM (TIGIT (human) [15]): 82400 MFI
Substance: Wildtype CD112-IgV Fc (Fc fusion)

IFN gamma levels pg/mL (MLR) (human PD-1 (human) [10]): 1730 pg/mL
Substance: variant PD-L2 IgV H15Q/T47A/H69L/Q82R/V89D Fc fusion

Fortebio Response Units (Response Units) (PD-1-Fc (human)): -0.04
IFN gamma levels pg/mL (MLR) (human PD-1 (human) [10]): 1530 pg/mL
Substance: variant PD-L2 IgV I13V/H15Q/R76G/I85F Fc fusion
